Source: publication PMC12494034
“And” between values parts separate entries of the source, which are not always exact repeats. Identical values can stand only once.

Experiments:
Assay in all cases: cryo-EM structure; single-particle analysis of purified HFTV1 virions (DNA-filled and empty particles sorted by 2D classification) in 18% SW buffer (2.47 M NaCl, 89 mM MgCl2, 85 mM MgSO4, 56 mM KCl, 3 mM CaCl2, 48 mM tris-HCl, pH 7.2); focused refinements of head, turrets, portal, tail, baseplate and tail fibers
[1] = molecular target: capsid stabilization protein gp18 of HFTV1 (Haloferax tailed virus 1 (HFTV1))
[2] = molecular target: portal interface protein gp21 of HFTV1 (Haloferax tailed virus 1 (HFTV1))
[3] = molecular target: tail tube protein gp35 of HFTV1 (Haloferax tailed virus 1 (HFTV1))
[4] = molecular target: tail completion protein gp29 of HFTV1 (Haloferax tailed virus 1 (HFTV1))
[5] = molecular target: baseplate hub gp44 of HFTV1 (Haloferax tailed virus 1 (HFTV1))
[6] = molecular target: head-tail connector gp26 of HFTV1 (Haloferax tailed virus 1 (HFTV1))
[7] = molecular target: turret base protein gp30 of HFTV1 (Haloferax tailed virus 1 (HFTV1))
[8] = molecular target: turret head protein gp31 of HFTV1 (Haloferax tailed virus 1 (HFTV1))
[9] = molecular target: portal protein gp13 of HFTV1 (Haloferax tailed virus 1 (HFTV1))
[10] = molecular target: tail fiber protein gp42 of HFTV1 (Haloferax tailed virus 1 (HFTV1))
[11] = molecular target: baseplate-tail connector gp41 of HFTV1 (Haloferax tailed virus 1 (HFTV1))
[12] = molecular target: tape measure protein gp40 of HFTV1 (Haloferax tailed virus 1 (HFTV1))
[13] = molecular target: major capsid protein gp19 of Haloferax tailed virus 1 (HFTV1) (Haloferax tailed virus 1 (HFTV1))

In the case of “capsid stabilization protein gp18 of HFTV1 (natural protein)”, the stoichiometry N [1] is reported as 3.

In the case of “portal interface protein gp21 of HFTV1 (natural protein)”, the stoichiometry N [2] is reported as 5.

Substance “tail tube protein gp35 of HFTV1 (natural protein)” has a stoichiometry N [3] of 6.

Substance “tail completion protein gp29 of HFTV1 (natural protein)” has a stoichiometry N [4] of 6.

With “baseplate hub gp44 of HFTV1 (natural protein)” the stoichiometry N [5] was 3.

Work on “head-tail connector gp26 of HFTV1 (natural protein)” yielded a stoichiometry N [6] of 12.

With “turret base protein gp30 of HFTV1 (from UniProt A0A410N6V5 1-115) (natural protein)” the stoichiometry N [7] was 6.

“turret head protein gp31 of HFTV1 (natural protein)” gave a stoichiometry N [8] of 3.

Work on “portal protein gp13 of HFTV1 (natural protein)” yielded a stoichiometry N [9] of 12.

“tail fiber protein gp42 of HFTV1 (natural protein)” showed a stoichiometry N [10] of 3.

With “baseplate-tail connector gp41 of HFTV1 (natural protein)” the stoichiometry N [11] was 3.

Work on “tape measure protein gp40 of HFTV1 (natural protein)” yielded a stoichiometry N [12] of 6.

With “major capsid protein gp19 of Haloferax tailed virus 1 (HFTV1) (natural protein)” the stoichiometry N [13] was 5 and 6.
